B1: BUD13 homolog (Homo sapiens), Q9BRD0 (parent)
chain: MAAAPPLSKAEYLKRYLSGADAGVDRGSESGRKRRKKRPKPGGAGGKGMRIVDDDVSWTAISTTKLEKEEEEDDGDLPVVAEFVDERPEEVKQMEAFRSSAKWKLLGGHNEDLPSNRHFRHDTPDSSPRRVRHGTPDPSPRKDRHDTPDPSPRRARHDTPDPSPLRGARHDSDTSPPRRIRHDSSDTSPPRRARHDSPDPSPPRRPQHNSSGASPRRVRHDSPDPSPPRRARHGSSDISSPRRVHNNSPDTSRRTLGSSDTQQLRRARHDSPDLAPNVTYSLPRTKSGKAPERASSKTSPHWKESGASHLSFPKNSKYEYDPDISPPRKKQAKSHFGDKKQLDSKGDCQKATDSDLSSPRHKQSPGHQDSDSDLSPPRNRPRHRSSDSDLSPPRRRQRTKSSDSDLSPPRRSQPPGKKAAHMYSGAKTGLVLTDIQREQQELKEQDQETMAFEAEFQYAETVFRDKSGRKRNLKLERLEQRRKAEKDSERDELYAQWGKGLAQSRQQQQNVEDAMKEMQKPLARYIDDEDLDRMLREQEREGDPMANFIKKNKAKENKNKKVRPRYSGPAPPPNRFNIWPGYRWDGVDRSNGFEQKRFARLASKKAVEELAYKWSVEDM
partner: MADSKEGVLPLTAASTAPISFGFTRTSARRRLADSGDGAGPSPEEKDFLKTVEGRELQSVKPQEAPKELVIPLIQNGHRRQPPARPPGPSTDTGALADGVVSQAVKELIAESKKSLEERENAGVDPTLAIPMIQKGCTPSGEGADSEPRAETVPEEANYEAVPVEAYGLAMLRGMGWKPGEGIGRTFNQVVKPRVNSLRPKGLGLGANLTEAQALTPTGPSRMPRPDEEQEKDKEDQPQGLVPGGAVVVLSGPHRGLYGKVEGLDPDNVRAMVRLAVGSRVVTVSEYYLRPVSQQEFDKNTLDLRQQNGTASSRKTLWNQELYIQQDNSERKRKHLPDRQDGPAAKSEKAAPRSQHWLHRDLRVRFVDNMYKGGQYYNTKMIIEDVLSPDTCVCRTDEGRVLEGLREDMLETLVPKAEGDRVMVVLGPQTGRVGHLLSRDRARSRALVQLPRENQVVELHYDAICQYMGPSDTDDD
B2: E3 ubiquitin-protein ligase CCNB1IP1 (Homo sapiens), Q9NPC3 (parent)
chain: MSLCEDMLLCNYRKCRIKLSGYAWVTACSHIFCDQHGSGEFSRSPAICPACNSTLSGKLDIVRTELSPSEEYKAMVLAGLRPEIVLDISSRALAFWTYQVHQERLYQEYNFSKAEGHLKQMEKIYTQQIQSKDVELTSMKGEVTSMKKVLEEYKKKFSDISEKLMERNRQYQKLQGLYDSLRLRNITIANHEGTLEPSMIAQSGVLGFPLGNNSKFPLDNTPVRNRGDGDGDFQFRPFFAGSPTAPEPSNSFFSFVSPSRELEQQQVSSRAFKVKRI
B3: Protein BANP (Homo sapiens), Q8N9N5-2 (parent)
chain: MMSEHDLADVVQIAVEDLSPDHPVVLENHVVTDEDEPALKRQRLEINCQDPSIKSFLYSINQTICLRLDSIEAKLQALEATCKSLEEKLDLVTNKQHSPIQVPMVAGSPLGATQTCNKVRCAVPGRRQNTIVVKVPGQEDSHHEDGESGSEASDSVSSCGQAGSQSIGSNVTLITLNSEEDYPNGTWLGDENNPEMRVRCAIIPSDMLHISTNCRTAEKMALTLLDYLFHREVQAVSNLSGQGKHGKKQLDPLTIYGIRCHLFYKFGITESDWYRIKQSIDSKCRTAWRRKQRGQSLAVKSFSRRTPNSSSYCPSEPMMSTPPPASELPQPQPQPQALHYALANAQQVQIHQIGEDGQVQVIPQGHLHIAQVPQGEQVQITQDSEGNLQIHHVGQDGQVLQGAQLIAVASSDPAAAGVDGSPLQGSDIQVQYVQLAPVSDHTAGAQTAEALQPTLQPEMQLEHGAIQIQ
B4: Segment polarity protein dishevelled homolog DVL-2 (Homo sapiens), O14641 (parent)
chain: MAGSSTGGGGVGETKVIYHLDEEETPYLVKIPVPAERITLGDFKSVLQRPAGAKYFFKSMDQDFGVVKEEISDDNARLPCFNGRVVSWLVSSDNPQPEMAPPVHEPRAELAPPAPPLPPLPPERTSGIGDSRPPSFHPNVSSSHENLEPETETESVVSLRRERPRRRDSSEHGAGGHRTGGPSRLERHLAGYESSSTLMTSELESTSLGDSDEEDTMSRFSSSTEQSSASRLLKRHRRRRKQRPPRLERTSSFSSVTDSTMSLNIITVTLNMEKYNFLGISIVGQSNERGDGGIYIGSIMKGGAVAADGRIEPGDMLLQVNDMNFENMSNDDAVRVLRDIVHKPGPIVLTVAKCWDPSPQAYFTLPRNEPIQPIDPAAWVSHSAALTGTFPAYPGSSSMSTITSGSSLPDGCEGRGLSVHTDMASVTKAMAAPESGLEVRDRMWLKITIPNAFLGSDVVDWLYHHVEGFPERREARKYASGLLKAGLIRHTVNKITFSEQCYYVFGDLSGGCESYLVNLSLNDNDGSSGASDQDTLAPLPGATPWPLLPTFSYQYPAPHPYSPQPPPYHELSSYTYGGGSASSQHSEGSRSSGSTRSDGGAGRTGRPEERAPESKSGSGSESEPSSRGGSLRRGGEASGTSDGGPPPSRGSTGGAPNLRAHPGLHPYGPPPGMALPYNPMMVVMMPPPPPPVPPAVQPPGAPPVRDLGSVPPELTASRQSFHMAMGNPSEFFVDVM
B5: WW domain-containing adapter protein with coiled-coil (Homo sapiens), Q9BTA9-1 (parent)
chain: MVMYARKQQRLSDGCHDRRGDSQPYQALKYSSKSHPSSGDHRHEKMRDAGDPSPPNKMLRRSDSPENKYSDSTGHSKAKNVHTHRVRERDGGTSYSPQENSHNHSALHSSNSHSSNPSNNPSKTSDAPYDSADDWSEHISSSGKKYYYNCRTEVSQWEKPKEWLEREQRQKEANKMAVNSFPKDRDYRREVMQATATSGFASGMEDKHSSDASSLLPQNILSQTSRHNDRDYRLPRAETHSSSTPVQHPIKPVVHPTATPSTVPSSPFTLQSDHQPKKSFDANGASTLSKLPTPTSSVPAQKTERKESTSGDKPVSHSCTTPSTSSASGLNPTSAPPTSASAVPVSPVPQSPIPPLLQDPNLLRQLLPALQATLQLNNSNVDISKINEVLTAAVTQASLQSIIHKFLTAGPSAFNITSLISQAAQLSTQAQPSNQSPMSLTSDASSPRSYVSPRISTPQTNTVPIKPLISTPPVSSQPKVSTPVVKQGPVSQSATQQPVTADKQQGHEPVSPRSLQRSSSQRSPSPGPNHTSNSSNASNATVVPQNSSARSTCSLTPALAAHFSENLIKHVQGWPADHAEKQASRLREEAHNMGTIHMSEICTELKNLRSLVRVCEIQATLREQRILFLRQQIKELEKLKNQNSFMV
B6: G1/S-specific cyclin-D3 (Homo sapiens), P30281 (parent)
chain: MELLCCEGTRHAPRAGPDPRLLGDQRVLQSLLRLEERYVPRASYFQCVQREIKPHMRKMLAYWMLEVCEEQRCEEEVFPLAMNYLDRYLSCVPTRKAQLQLLGAVCMLLASKLRETTPLTIEKLCIYTDHAVSPRQLRDWEVLVLGKLKWDLAAVIAHDFLAFILHRLSLPRDRQALVKKHAQTFLALCATDYTFAMYPPSMIATGSIGAAVQGLGACSMSGDELTELLAGITGTEVDCLRACQEQIEAALRESLREASQTSSSPAPKAPRGSSSQGPSQTSTPTDVTAIHL

Variants of: B1
Conditions: with gpkow_human GPKOW

Row | effect of a mutation on the interaction | Variant
1 | with no effect | P148L

Variants of: B2
Conditions: with aapk2_human PRKAA2, P54646
aapk2_human PRKAA2, P54646, sequence (P54646 whole entry, looked up): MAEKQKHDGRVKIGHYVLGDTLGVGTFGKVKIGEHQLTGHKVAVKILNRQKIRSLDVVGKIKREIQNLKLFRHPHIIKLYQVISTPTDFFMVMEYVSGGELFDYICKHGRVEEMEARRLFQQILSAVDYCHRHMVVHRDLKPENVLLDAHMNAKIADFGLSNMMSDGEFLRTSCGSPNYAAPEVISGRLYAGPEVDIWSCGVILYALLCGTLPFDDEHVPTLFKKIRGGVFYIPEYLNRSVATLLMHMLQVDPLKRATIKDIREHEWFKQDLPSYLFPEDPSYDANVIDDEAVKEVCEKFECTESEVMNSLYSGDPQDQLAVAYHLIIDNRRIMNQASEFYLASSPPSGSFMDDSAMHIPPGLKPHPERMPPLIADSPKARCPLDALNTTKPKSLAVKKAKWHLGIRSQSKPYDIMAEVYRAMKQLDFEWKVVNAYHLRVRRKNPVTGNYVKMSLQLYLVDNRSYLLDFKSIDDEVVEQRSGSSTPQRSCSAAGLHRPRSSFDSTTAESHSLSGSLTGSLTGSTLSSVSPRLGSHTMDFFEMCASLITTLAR

Row | effect of a mutation on the interaction | Variant
2 | with no effect | F41L

Variants of: B2
Conditions: with KRT15, P19012
Target sequence in this assay (P19012 whole entry): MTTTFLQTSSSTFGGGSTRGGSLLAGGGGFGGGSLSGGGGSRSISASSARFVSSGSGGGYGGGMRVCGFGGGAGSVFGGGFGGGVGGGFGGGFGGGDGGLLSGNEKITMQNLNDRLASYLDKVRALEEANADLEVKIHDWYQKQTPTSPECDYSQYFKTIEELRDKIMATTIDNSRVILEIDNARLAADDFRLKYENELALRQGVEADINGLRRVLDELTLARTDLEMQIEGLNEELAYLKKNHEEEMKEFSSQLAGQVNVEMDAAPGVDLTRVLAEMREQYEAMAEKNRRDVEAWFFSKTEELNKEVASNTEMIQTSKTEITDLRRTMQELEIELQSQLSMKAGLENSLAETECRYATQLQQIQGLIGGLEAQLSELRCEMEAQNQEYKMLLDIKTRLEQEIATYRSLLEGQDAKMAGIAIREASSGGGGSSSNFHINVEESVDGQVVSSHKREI

Row | effect of a mutation on the interaction | Variant
3 | with no effect | F41L

Variants of: B2
Conditions: with keap1_human KEAP1, Q14145
keap1_human KEAP1, Q14145, sequence (Q14145 whole entry): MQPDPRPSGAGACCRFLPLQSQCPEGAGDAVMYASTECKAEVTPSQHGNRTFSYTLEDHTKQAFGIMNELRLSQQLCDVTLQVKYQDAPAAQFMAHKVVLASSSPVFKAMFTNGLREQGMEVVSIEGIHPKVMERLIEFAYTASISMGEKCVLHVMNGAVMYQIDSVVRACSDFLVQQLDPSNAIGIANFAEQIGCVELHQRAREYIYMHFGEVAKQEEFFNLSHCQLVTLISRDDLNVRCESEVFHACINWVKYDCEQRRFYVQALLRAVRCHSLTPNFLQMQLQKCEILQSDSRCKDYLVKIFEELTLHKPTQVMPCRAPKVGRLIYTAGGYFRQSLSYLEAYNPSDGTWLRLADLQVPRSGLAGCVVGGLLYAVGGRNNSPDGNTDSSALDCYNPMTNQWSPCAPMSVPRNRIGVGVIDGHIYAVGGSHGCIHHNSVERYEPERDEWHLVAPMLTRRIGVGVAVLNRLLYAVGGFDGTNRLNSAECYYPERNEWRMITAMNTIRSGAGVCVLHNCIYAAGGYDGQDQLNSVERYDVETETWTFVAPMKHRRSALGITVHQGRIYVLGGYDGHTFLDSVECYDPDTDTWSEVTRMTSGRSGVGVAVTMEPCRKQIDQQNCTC

Row | effect of a mutation on the interaction | Variant
4 | with no effect | F41L

Variants of: B3
Conditions: with kcc2d_human CAMK2D

Row | effect of a mutation on the interaction | Variant
5 | with no effect | A162V

Variants of: B3
Conditions: with FAM117B

Row | effect of a mutation on the interaction | Variant
6 | with no effect | A162V

Variants of: B3
Conditions: with aakb2_human PRKAB2, O43741
aakb2_human PRKAB2, O43741, sequence (O43741 whole entry): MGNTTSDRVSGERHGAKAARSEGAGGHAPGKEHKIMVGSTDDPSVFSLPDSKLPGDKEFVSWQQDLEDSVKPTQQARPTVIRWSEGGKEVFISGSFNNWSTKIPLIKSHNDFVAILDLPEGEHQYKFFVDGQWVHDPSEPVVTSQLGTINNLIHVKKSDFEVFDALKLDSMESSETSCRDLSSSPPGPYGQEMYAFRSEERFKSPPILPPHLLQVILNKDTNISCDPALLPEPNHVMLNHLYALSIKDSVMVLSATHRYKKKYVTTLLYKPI

Row | effect of a mutation on the interaction | Variant
7 | with no effect | A162V

Variants of: B3
Conditions: with pf21a_human PHF21A

Row | effect of a mutation on the interaction | Variant
8 | with no effect | A162V

Variants of: B4
Conditions: with traf2_human TRAF2, Q12933
traf2_human TRAF2, Q12933, sequence (Q12933 whole entry): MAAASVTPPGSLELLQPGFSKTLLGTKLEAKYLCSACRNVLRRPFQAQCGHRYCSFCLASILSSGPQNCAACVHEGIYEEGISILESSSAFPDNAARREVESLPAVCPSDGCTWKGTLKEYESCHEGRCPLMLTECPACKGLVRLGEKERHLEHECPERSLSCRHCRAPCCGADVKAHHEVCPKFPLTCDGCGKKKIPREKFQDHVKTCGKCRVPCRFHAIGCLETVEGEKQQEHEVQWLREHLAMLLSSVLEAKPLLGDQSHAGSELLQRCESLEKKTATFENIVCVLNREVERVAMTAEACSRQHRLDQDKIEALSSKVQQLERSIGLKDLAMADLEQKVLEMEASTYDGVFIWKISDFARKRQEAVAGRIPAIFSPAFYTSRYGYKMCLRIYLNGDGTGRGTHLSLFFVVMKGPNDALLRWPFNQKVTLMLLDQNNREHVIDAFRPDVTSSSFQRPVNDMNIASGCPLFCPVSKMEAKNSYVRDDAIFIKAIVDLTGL

Row | effect of a mutation on the interaction | Variant
9 | with no effect | R415Q

Variants of: B4
Conditions: with ap2m1_human AP2M1, Q96CW1
ap2m1_human AP2M1, Q96CW1, sequence (Q96CW1 whole entry): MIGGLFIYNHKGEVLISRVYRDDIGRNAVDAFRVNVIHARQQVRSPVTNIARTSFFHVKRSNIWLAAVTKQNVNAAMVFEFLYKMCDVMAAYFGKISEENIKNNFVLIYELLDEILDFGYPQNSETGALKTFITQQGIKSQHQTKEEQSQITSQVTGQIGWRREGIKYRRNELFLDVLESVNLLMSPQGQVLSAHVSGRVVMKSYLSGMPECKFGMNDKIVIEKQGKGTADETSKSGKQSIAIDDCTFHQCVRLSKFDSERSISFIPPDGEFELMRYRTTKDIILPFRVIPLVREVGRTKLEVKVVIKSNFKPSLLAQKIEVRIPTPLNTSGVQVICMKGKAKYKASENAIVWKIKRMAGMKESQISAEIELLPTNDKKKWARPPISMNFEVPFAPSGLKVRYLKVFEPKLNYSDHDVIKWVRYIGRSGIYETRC

Row | effect of a mutation on the interaction | Variant
10 | with no effect | R415Q

Variants of: B4
Conditions: with thap1_human THAP1, Q9NVV9
thap1_human THAP1, Q9NVV9, sequence (Q9NVV9 whole entry): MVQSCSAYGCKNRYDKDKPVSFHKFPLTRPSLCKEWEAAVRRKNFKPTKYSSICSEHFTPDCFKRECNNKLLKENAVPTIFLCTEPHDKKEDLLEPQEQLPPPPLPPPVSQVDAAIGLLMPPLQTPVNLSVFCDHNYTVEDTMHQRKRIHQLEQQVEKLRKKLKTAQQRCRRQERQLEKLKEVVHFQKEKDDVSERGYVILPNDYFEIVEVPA

Row | effect of a mutation on the interaction | Variant
11 | with no effect | A53V
12 | with no effect | T535I

Variants of: B4
Conditions: with kc1e_human CSNK1E

Row | effect of a mutation on the interaction | Variant
13 | with no effect | A53V
14 | with no effect | T535I

Variants of: B5
Conditions: with KRT15, P19012
Target sequence in this assay (P19012 whole entry): as the sequence (P19012 whole entry) above

Row | effect of a mutation on the interaction | Variant
15 | with no effect | S475L

Variants of: B5
Conditions: with nf2l2_human NFE2L2, Q16236
nf2l2_human NFE2L2, Q16236, sequence (Q16236 whole entry): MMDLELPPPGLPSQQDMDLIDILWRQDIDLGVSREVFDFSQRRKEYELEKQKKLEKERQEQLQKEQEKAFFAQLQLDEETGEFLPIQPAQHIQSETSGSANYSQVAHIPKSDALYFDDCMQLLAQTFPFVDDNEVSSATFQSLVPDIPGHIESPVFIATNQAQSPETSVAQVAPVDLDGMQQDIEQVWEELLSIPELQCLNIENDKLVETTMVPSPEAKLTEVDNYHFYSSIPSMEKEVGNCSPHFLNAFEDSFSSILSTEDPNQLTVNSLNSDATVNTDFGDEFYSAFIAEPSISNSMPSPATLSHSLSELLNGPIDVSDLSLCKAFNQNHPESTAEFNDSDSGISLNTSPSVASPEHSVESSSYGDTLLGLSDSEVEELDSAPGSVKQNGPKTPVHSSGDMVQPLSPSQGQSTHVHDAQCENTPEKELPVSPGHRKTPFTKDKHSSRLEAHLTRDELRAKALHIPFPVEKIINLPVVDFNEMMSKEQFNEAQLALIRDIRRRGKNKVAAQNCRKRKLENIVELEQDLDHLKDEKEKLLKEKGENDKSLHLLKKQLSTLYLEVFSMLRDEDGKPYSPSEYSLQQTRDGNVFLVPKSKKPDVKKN

Row | effect of a mutation on the interaction | Variant
16 | with no effect | S475L

Variants of: B5
Conditions: with mtus2_human MTUS2, Q5JR59

Row | effect of a mutation on the interaction | Variant
17 | with no effect | S475L

Variants of: B6
Conditions: with cdk4_human CDK4, P11802

Row | effect of a mutation on the interaction | Variant
18 | with no effect | P134S
19 | with no effect | S259A
20 | with no effect | A266V

Variants of: B6
Conditions: with cdk6_human CDK6, Q00534
cdk6_human CDK6, Q00534, sequence (Q00534 whole entry): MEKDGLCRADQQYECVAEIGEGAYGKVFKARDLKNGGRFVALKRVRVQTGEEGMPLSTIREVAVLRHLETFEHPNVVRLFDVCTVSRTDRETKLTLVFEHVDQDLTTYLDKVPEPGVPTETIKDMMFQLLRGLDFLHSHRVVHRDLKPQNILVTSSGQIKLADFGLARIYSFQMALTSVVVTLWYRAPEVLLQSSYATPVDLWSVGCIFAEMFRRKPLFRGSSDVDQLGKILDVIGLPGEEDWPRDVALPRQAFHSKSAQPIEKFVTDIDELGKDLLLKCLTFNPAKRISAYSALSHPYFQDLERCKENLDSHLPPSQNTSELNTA

Row | effect of a mutation on the interaction | Variant
21 | with no effect | P134S
22 | with no effect | A266V

Variants of: B6
Conditions: with tfp11_human TFIP11, Q9UBB9
tfp11_human TFIP11, Q9UBB9, sequence (Q9UBB9 whole entry): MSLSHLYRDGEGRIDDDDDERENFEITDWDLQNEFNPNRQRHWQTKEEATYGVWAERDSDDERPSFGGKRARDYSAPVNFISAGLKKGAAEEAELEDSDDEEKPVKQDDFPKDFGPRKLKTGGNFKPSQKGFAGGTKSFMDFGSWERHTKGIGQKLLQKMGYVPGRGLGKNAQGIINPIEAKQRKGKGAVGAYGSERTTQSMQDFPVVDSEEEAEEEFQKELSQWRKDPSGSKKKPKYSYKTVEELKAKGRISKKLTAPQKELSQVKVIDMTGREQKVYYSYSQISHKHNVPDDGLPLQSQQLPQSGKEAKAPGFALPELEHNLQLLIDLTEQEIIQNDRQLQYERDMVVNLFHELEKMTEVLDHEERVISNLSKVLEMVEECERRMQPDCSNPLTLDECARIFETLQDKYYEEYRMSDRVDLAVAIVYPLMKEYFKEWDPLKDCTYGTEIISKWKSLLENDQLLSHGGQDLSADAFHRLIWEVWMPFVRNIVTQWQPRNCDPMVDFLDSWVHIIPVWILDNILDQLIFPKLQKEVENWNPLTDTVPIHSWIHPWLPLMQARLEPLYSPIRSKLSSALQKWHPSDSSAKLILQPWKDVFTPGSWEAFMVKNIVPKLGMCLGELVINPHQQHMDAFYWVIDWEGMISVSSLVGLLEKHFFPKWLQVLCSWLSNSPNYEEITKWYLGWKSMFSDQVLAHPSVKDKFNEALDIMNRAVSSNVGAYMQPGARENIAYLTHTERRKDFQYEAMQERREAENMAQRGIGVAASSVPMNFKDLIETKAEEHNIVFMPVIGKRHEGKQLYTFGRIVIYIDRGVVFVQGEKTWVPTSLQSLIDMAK

Row | effect of a mutation on the interaction | Variant
23 | with no effect | S259A

Source: IntAct's records for PubMed 31515488
